According to patent US7304127:
Where “and” joins values, the source holds several entries; their conditions need not be identical. Identical values can stand only once.

Molecular target: HIV-1LAI envelope gp120 labeled with radioactive iodine (HIV-1 LAI), P03377
Test: 125I-gp120, peptide array

| Binder | counts minus background (counts per 20 min) |
| --- | --- |
| AYLRACLNPVLYAFVSLK (modifications not checked) [STRL33 277-294] | 1800 and 1850 |
| TIMVTEAIAYLRACLNPV (modifications not checked) [STRL33 269-286] | 140 and 272 |
| IRSTHWEYYAMTSFHYTI (modifications not checked) [STRL33 253-270] | 1570 and 1810 |
| FSGIFFIILLTIDRYLAV (modifications not checked) [CCR5 113-130] | 83 |
| SQYQFWKNFQTLKIVILG (modifications not checked) [CCR5 185-202] | 1570 |
| AVRLIFTIMIVYFLFWAP (modifications not checked) [CCR5 233-250] | 62 |
| FQTLKIVILGLVLPLLVM (modifications not checked) [CCR5 193-210] | 45 |
| LKFRKNFWKLVKDIGCLP (modifications not checked) [STRL33 293-310] | 920 and 958 |
| IFLVMAVFLLTQMPFNLM (modifications not checked) [STRL33 233-250] | 386 and 772 |
| LLTIDRYLAVVHAVFALK (modifications not checked) [CCR5 121-138] | 31 |
| TCSSHFPYSQYQFWKNFQ (modifications not checked) [CCR5 177-194] | 367 |
| LKARTVTFGVVTSVITWV (modifications not checked) [CCR5 137-154] | 74 |
| TEAIAYLRACLNPVLYAF (modifications not checked) [STRL33 273-290] | 604 and 480 |
| QKINVKQIAARLLPPLYS (modifications not checked) [CCR5 21-38] | 20 |
| LLTQMPFNLMKFIRSTHW (modifications not checked) [STRL33 241-258] | 2510 and 3150 |
| GVSHQWKSSEDNSKTFSA (modifications not checked) [STRL33 313-330] | 208 and 306 |
| TLLHAGGFQKHRSLKIIF (modifications not checked) [STRL33 217-234] | 1040 and 1000 |
| IYDINYYTSEPCQKINVK (modifications not checked) [CCR5 9-26] | 228 |
| MAVFLLTQMPFNLMKFIR (modifications not checked) [STRL33 237-254] | 2260 and 2840 |
| VKQIAARLLPPLYSLVFI (modifications not checked) [CCR5 25-42] | 18 |
| ILKTLLRCRNEKKRHRAV (modifications not checked) [CCR5 217-234] | 19 |
| SQKEGLHYTCSSHFPYSQ (modifications not checked) [CCR5 169-186] | 304 |

| Binder | counts minus background (counts per 20 min) |
| --- | --- |
| FWKNFQTLKIVILGLVLP (modifications not checked) [CCR5 189-206] | 40 |
| QWKSSEDNSKTFSASHNV (modifications not checked) [STRL33 317-334] | 464 and 534 |
| LPLLVMVICYSGILKTLL (modifications not checked) [CCR5 205-222] | 68 |
| AFVSLKFRKNFWKLVKDI (modifications not checked) [STRL33 289-306] | 808 and 1040 |
| MPFNLMKFIRSTHWEYYA (modifications not checked) [STRL33 245-262] | 2170 and 2180 |
| NYYTSEPCQKINVKQIAA (modifications not checked) [CCR5 13-30] | 6 |
| FLFWAPYNIVLLLNTFQE (modifications not checked) [CCR5 245-262] | 616 |
| SEDNSKTFSASHNVEATS (modifications not checked) [STRL33 321-338] | 524 and 434 |
| AGGFQKHRSLKIIFLVMA (modifications not checked) [STRL33 221-238] | 340 and 260 |
| SKTFSASHNVEATSMFQL (modifications not checked) [STRL33 325-342] | 1520 and 1240 |
| ACLNPVLYAFVSLKFRKN (modifications not checked) [STRL33 281-298] | 4170 and 4520 |
| PVLYAFVSLKFRKNFWKL (modifications not checked) [STRL33 285-302] | 1860 and 2150 |
| FIGFFSGIFFIILLTIDR (modifications not checked) [CCR5 109-126] | 76 |
| FFIILLTIDRYLAVVHAV (modifications not checked) [CCR5 117-134] | 77 |
| TVTFGVVTSVITWVVAVF (modifications not checked) [CCR5 141-158] | -25 |
| CYSGILKTLLRCRNEKKR (modifications not checked) [CCR5 213-230] | 70 |
| LNTFQEFFGLNNCSSSNR (modifications not checked) [CCR5 257-274] | 293 |
| HFPYSQYQFWKNFQTLKI (modifications not checked) [CCR5 181-198] | 1010 |
| QKHRSLKIIFLVMAVFLL (modifications not checked) [STRL33 225-242] | 810 and 814 |
| WVVAVFASLPGIIFTRSQ (modifications not checked) [CCR5 153-170] | 87 |
| AVVHAVFALKARTVTFGV (modifications not checked) [CCR5 129-146] | 34 |
| LMKFIRSTHWEYYAMTSF (modifications not checked) [STRL33 249-266] | 934 and 950 |

| Binder | counts minus background (counts per 20 min) |
| --- | --- |
| NRLDQAMQVTETLGMTHC (modifications not checked) [CCR5 273-290] | 10 |
| DRYLAVVHAVFALKARTV (modifications not checked) [CCR5 125-142] | 62 |
| CSSSNRLDQAMQVTETLG (modifications not checked) [CCR5 269-286] | 90 |
| APYNIVLLLNTFQEFFGL (modifications not checked) [CCR5 249-266] | 1960 |
| IVLLLNTFQEFFGLNNCS (modifications not checked) [CCR5 253-270] | 2130 |
| QEFFGLNNCSSSNRLDQA (modifications not checked) [CCR5 261-278] | 63 |
| KRHRAVRLIFTIMIVYFL (modifications not checked) [CCR5 229-246] | 36 |
| VFASLPGIIFTRSQKEGL (modifications not checked) [CCR5 157-174] | 54 |
| HWEYYAMTSFHYTIMVTE (modifications not checked) [STRL33 257-274] | 2040 and 3070 |
| SVITWVVAVFASLPGIIF (modifications not checked) [CCR5 149-166] | 46 |
| SFHYTIMVTEAIAYLRAC (modifications not checked) [STRL33 265-282] | 762 and 1030 |
| AVFALKARTVTFGVVTSV (modifications not checked) [CCR5 133-150] | 63 |
| GLNNCSSSNRLDQAMQVT (modifications not checked) [CCR5 265-282] | -31 |
| GVVTSVITWVVAVFASLP (modifications not checked) [CCR5 145-162] | 69 |
| SEPCQKINVKQIAARLLP (modifications not checked) [CCR5 17-34] | -44 |
| YAMTSFHYTIMVTEAIAY (modifications not checked) [STRL33 261-278] | 2690 and 2360 |
| GLHYTCSSHFPYSQYQFW (modifications not checked) [CCR5 173-190] | 301 |
| VMVICYSGILKTLLRCRN (modifications not checked) [CCR5 209-226] | -8 |
| SLKIIFLVMAVFLLTQMP (modifications not checked) [STRL33 229-246] | 612 and 854 |
| RNEKKRHRAVRLIFTIMI (modifications not checked) [CCR5 225-242] | 23 |
| KIVILGLVLPLLVMVICY (modifications not checked) [CCR5 197-214] | 65 |
